From publication PMC11401910 (2024)

What was measured:
OmpF = molecular target: T1, OmpF (Escherichia coli, UniProt P02931)
T1 chain: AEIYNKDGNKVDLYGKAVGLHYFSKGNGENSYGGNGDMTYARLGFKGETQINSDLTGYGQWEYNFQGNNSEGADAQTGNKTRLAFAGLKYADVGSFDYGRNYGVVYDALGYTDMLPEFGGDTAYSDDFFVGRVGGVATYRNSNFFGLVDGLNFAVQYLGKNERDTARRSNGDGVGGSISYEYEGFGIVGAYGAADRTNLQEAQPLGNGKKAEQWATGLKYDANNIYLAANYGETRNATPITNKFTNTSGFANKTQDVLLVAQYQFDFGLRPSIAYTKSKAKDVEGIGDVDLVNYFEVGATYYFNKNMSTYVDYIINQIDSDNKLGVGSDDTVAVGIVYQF

[1] = molecular target: T2, tOmpA transmembrane domain (Escherichia coli, UniProt P0A910)
T2 chain: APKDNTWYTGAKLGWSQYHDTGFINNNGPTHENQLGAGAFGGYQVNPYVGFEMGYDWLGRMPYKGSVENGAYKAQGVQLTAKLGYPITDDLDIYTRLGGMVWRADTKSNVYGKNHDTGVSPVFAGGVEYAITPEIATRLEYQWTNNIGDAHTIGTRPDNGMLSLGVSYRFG

SurA-WT [2] = molecular target: T3, SurA-WT (E. coli, UniProt P0ABZ6 21-428); test: MST; apparent Kd, Hill fit, 0.8 M urea
T3 chain: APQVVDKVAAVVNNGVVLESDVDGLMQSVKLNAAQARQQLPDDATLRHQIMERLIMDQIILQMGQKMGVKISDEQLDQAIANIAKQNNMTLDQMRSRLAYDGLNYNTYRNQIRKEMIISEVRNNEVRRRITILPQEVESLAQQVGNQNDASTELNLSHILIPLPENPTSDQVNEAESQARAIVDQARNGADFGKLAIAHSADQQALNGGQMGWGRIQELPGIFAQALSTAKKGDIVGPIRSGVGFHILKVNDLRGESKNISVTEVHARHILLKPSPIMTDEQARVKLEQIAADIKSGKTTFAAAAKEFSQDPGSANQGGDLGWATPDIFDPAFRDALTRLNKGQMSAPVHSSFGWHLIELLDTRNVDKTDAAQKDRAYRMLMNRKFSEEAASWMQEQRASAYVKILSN

SurA-core = SurA-core (E. coli, UniProt P0ABZ6 21-428, deleting codons for residues 172–389); test: MST; apparent Kd, Hill fit, 0.8 M urea
SurA-WT [3] = molecular target: T3, SurA-WT; test: ITC

B1: SurA (protein)
chain: APQVVDKVAAVVNNGVVLESDVDGLMQSVKLNAAQARQQLPDDATLRHQIMERLIMDQIILQMGQKMGVKISDEQLDQAIANIAKQNNMTLDQMRSRLAYDGLNYNTYRNQIRKEMIISEVRNNEVRRRITILPQEVESLAQQVGNQNDASTELNLSHILIPLPENPTSDQVNEAESQARAIVDQARNGADFGKLAIAHSADQQALNGGQMGWGRIQELPGIFAQALSTAKKGDIVGPIRSGVGFHILKVNDLRGESKNISVTEVHARHILLKPSPIMTDEQARVKLEQIAADIKSGKTTFAAAAKEFSQDPGSANQGGDLGWATPDIFDPAFRDALTRLNKGQMSAPVHSSFGWHLIELLDTRNVDKTDAAQKDRAYRMLMNRKFSEEAASWMQEQRASAYVKILSN
OmpF
  Ki: 5.2 µM
[1]
  Kd: 3.7 µM

B2: Cys-OmpX labelled with Alexa Fluor 488 (natural protein)
chain: MGSCATSTVTGGYAQSDAQGQMNKMGGFNLKYRYEEDNSPLGVIGSFTYTEKSRTASSGDYNKNQYYGITAGPAYRINDWASIYGVVGVGYGKFQTTEYPTYKHDTSDYGFSYGAGLQFNPMENVALDFSYEQSRIRSVDVGTWIAGVGYRF
modifications: Alexa Fluor 488 on the N-terminal Cys
SurA-WT [2]
  Kd: 1.3 µM
SurA-core
  Kd: 5.1 µM

## WEYIPNV [WEYIPNV peptide]
SurA-WT [3]
  Kd: 5.4 µM
